Here are results for two molecules from US12227742B2, “Nucleic acid modifiers” (THE BROAD INSTITUTE, INC., priority 2017, dated 2025).

Assay [1] deals with target DNA. The assay is described as follows: SpCas9 DNA cleavage activity, mutational analysis. It counts as biochemical. Particulars: 5′-NGG PAM (5′-GGGCT).
For assay [2], the system named is target DNA. The assay is described as follows: SaCas9 DNA cleavage activity, mutational analysis. It counts as biochemical.

B1: St3Cas9: Streptococcus thermophilus CRISPR-3 Cas9 (protein, UniProt G3ECR1 1-1409, looked up)
CRISPR-associated …: MLFNKCIIISINLDFSNKEKCMTKPYSIGLDIGTNSVGWAVITDNYKVPSKKMKVLGNTSKKYIKKNLLGVLLFDSGITAEGRRLKRTARRRYTRRRNRILYLQEIFSTEMATLDDAFFQRLDDSFLVPDDKRDSKYPIFGNLVEEKVYHDEFPTIYHLRKYLADSTKKADLRLVYLALAHMIKYRGHFLIEGEFNSKNNDIQKNFQDFLDTYNAIFESDLSLENSKQLEEIVKDKISKLEKKDRILKLFPGEKNSGIFSEFLKLIVGNQADFRKCFNLDEKASLHFSKESYDEDLETLLGYIGDDYSDVFLKAKKLYDAILLSGFLTVTDNETEAPLSSAMIKRYNEHKEDLALLKEYIRNISLKTYNEVFKDDTKNGYAGYIDGKTNQEDFYVYLKNLLAEFEGADYFLEKIDREDFLRKQRTFDNGSIPYQIHLQEMRAILDKQAKFYPFLAKNKERIEKILTFRIPYYVGPLARGNSDFAWSIRKRNEKITPWNFEDVIDKESSAEAFINRMTSFDLYLPEEKVLPKHSLLYETFNVYNELTKVRFIAESMRDYQFLDSKQKKDIVRLYFKDKRKVTDKDIIEYLHAIYGYDGIELKGIEKQFNSSLSTYHDLLNIINDKEFLDDSSNEAIIEEIIHTLTIFEDREMIKQRLSKFENIFDKSVLKKLSRRHYTGWGKLSAKLINGIRDEKSGNTILDYLIDDGISNRNFMQLIHDDALSFKKKIQKAQIIGDEDKGNIKEVVKSLPGSPAIKKGILQSIKIVDELVKVMGGRKPESIVVEMARENQYTNQGKSNSQQRLKRLEKSLKELGSKILKENIPAKLSKIDNNALQNDRLYLYYLQNGKDMYTGDDLDIDRLSNYDIDHIIPQAFLKDNSIDNKVLVSSASNRGKSDDFPSLEVVKKRKTFWYQLLKSKLISQRKFDNLTKAERGGLLPEDKAGFIQRQLVETRQITKHVARLLDEKFNNKKDENNRAVRTVKIITLKSTLVSQFRKDFELYKVREINDFHHAHDAYLNAVIASALLKKYPKLEPEFVYGDYPKYNSFRERKSATEKVYFYSNIMNIFKKSISLADGRVIERPLIEVNEETGESVWNKESDLATVRRVLSYPQVNVVKKVEEQNHGLDRGKPKGLFNANLSSKPKPNSNENLVGAKEYLDPKKYGGYAGISNSFAVLVKGTIEKGAKKKITNVLEFQGISILDRINYRKDKLNFLLEKGYKDIELIIELPKYSLFELSDGSRRMLASILSTNNKRGEIHKGNQIFLSQKFVKLLYHAKRISNTINENHRKYVENHKKEFEELFYYILEFNENYVGAKKNGKLLNSAFQSWQNHSIDELCSSFIGPTGSERKGLFELTSRGSAADFEFLGVKIPRYRDYTPSSLLKDATLIHQSVTGLYETRIDLAKLGEG
As for B1, in the assay with target DNA [1], the “cleavage of target DNA with 5′-NGG PAM” value is “not”.

B2: SaCas9 T787A (protein, UniProt J7RUA5 1-1053, looked up, variant T787A)
CRISPR-associated …: MKRNYILGLDIGITSVGYGIIDYETRDVIDAGVRLFKEANVENNEGRRSKRGARRLKRRRRHRIQRVKKLLFDYNLLTDHSELSGINPYEARVKGLSQKLSEEEFSAALLHLAKRRGVHNVNEVEEDTGNELSTKEQISRNSKALEEKYVAELQLERLKKDGEVRGSINRFKTSDYVKEAKQLLKVQKAYHQLDQSFIDTYIDLLETRRTYYEGPGEGSPFGWKDIKEWYEMLMGHCTYFPEELRSVKYAYNADLYNALNDLNNLVITRDENEKLEYYEKFQIIENVFKQKKKPTLKQIAKEILVNEEDIKGYRVTSTGKPEFTNLKVYHDIKDITARKEIIENAELLDQIAKILTIYQSSEDIQEELTNLNSELTQEEIEQISNLKGYTGTHNLSLKAINLILDELWHTNDNQIAIFNRLKLVPKKVDLSQQKEIPTTLVDDFILSPVVKRSFIQSIKVINAIIKKYGLPNDIIIELAREKNSKDAQKMINEMQKRNRQTNERIEEIIRTTGKENAKYLIEKIKLHDMQEGKCLYSLEAIPLEDLLNNPFNYEVDHIIPRSVSFDNSFNNKVLVKQEENSKKGNRTPFQYLSSSDSKISYETFKKHILNLAKGKGRISKTKKEYLLEERDINRFSVQKDFINRNLVDTRYATRGLMNLLRSYFRVNNLDVKVKSINGGFTSFLRRKWKFKKERNKGYKHHAEDALIIANADFIFKEWKKLDKAKKVMENQMFEEKQAESMPEIETEQEYKEIFITPHQIKHIKDFKDYKYSHRVDKKPNRELINDALYSTRKDDKGNTLIVNNLNGLYDKDNDKLKKLINKSPEKLLMYHHDPQTYQKLKLIMEQYGDEKNPLYKYYEETGNYLTKYSKKDNGPVIKKIKYYGNKLNAHLDITDDYPNSRNKVVKLSLKPYRFDVYLDNGVYKFVTVKNLDVIKKENYYEVNSKCYEEAKKLKKISNQAEFIASFYNNDLIKINGELYRVIGVNNDLLNRIEVNMIDITYREYLENMNDKRPPRIIKTIASKTQSIKKYSTDILGNLYEVKSKKHPQIIKKG
Consider B2, for which the DNA cleavage activity entry in the assay on target DNA [2] was “reduced DNA cleavage activity”.
